According to the RNAGym collection of RNA variant scans (doi:10.7554/elife.80360):

B1: HDV Ribozyme (parent)
chain: GGCCGGCAUGGUCCCAGCCUCCUCGCUGGCGCCGGCUGGGCAACAUUCCGAGGGGACCGUCCCCUCGGUAAUGGCGAAUGGGACCCA

Variants of: B1
Assay: self-cleavage, relative activity (ratio to wild type); higher = more cleavage; co-transcriptional

Variant | self-cleavage
G6A C63A | 0.407
G6C G80A | 0.0665
G6C G80C | 0.172
G6A G68U | 0.691
G6A G68C | 0.604
G6C A16U | 0.199
G6A G80U | 0.0813
G6A G80A | 0.147
G6C G59A | 0.492
G6C G59C | 0.277
G6A G10C | 0.249
G6C A87G | 0.288
G6C G29C | 0.161
G6C G29A | 0
G6A U37G | 0.128
G6A G25A | 0.121
G6A G25U | 0.089
G6A G25C | 0.0462
G6C C48G | 0.199
G6C C48A | 0.443
G6C C33A | 0.172
G6C C33G | 0.185
G6C G68C | 0.364
G6A G50A | 0.785

Variant | self-cleavage
G6A U46G | 0.229
G6A U27C | 0.268
G6C C19U | 0.0773
G6C C18G | 0
G6A G17U | 0.0773
G6C A83C | 0.0875
G6C A83U | 0.0692
G6A C62U | 0.728
G6A C62G | 0.441
G6A G59U | 0.755
G6C C86U | 0.403
G6C C13G | 0.151
G6C C13U | 0.0831
G6C C13A | 0
G6C G17A | 0
G6C G25C | 0
G6C G25A | 0.0898
G6C C62G | 0.151
G6C C62U | 0.193
G6A U9C | 0.795
G6A U9G | 0.653
G6A G76C | 0.764
G6C C64G | 0.344
G6C C64A | 0.594

Variant | self-cleavage
G6C C64U | 0.244
G6C G28A | 0.0545
G6C G28U | 0
G6A C49U | 0.58
G6C C36G | 0.158
G6C C36U | 0.175
G6C A43C | 0.0519
G6C G10U | 0.0755
G6C G10A | 0.147
G6C A8U | 0.346
G6A C66G | 0.456
G6C A71G | 0
G6C A71U | 0.138
G6A G40C | 0.232
G6A G40A | 0.505
G6A C75G | 0.0369
G6A C75U | 0.193
G6A C75A | 0.17
G6C C84G | 0.138
G6C C84A | 0.332
G6C C84U | 0.0573
G6C C75A | 0.0723
G6C C75G | 0.0536
G6C C44U | 0

Variant | self-cleavage
G6A G67A | 0.763
G6C C24U | 0
G6C C24G | 0.151
G6A G34C | 0.104
G6C A78C | 0.0831
G6C A78G | 0
G6C C32G | 1.1
G6C C32U | 0.63
G6C G34C | 0.115
G6C G34U | 0
G6C C7G | 0.475
G6C C7U | 0.787
G6A G35U | 0.148
G6C C63A | 0.582
G6C C63G | 0.246
G6C G81C | 0.185
G6C G81U | 0.0615
G6C G81A | 0.0811
G6C C15A | 0
G6C C15U | 0.138
G6A G38U | 0.0923
G6A G82U | 0.188
G6C G54U | 0.231
G6C C57A | 0.346

Variant | self-cleavage
G6C G40C | 0.175
G6C G40U | 0.0536
G6C C61G | 0.222
G6A C64U | 0.739
G6A G73A | 0.256
G6C G38U | 0.203
G6A C57U | 0.665
G6A G39C | 0.0415
G6A G39U | 0.317
G6C G74A | 0.0875
G6C C58G | 0.133
G6A U23C | 0.532
G6A U23G | 0.342
G6A U20A | 0.0536
G6A U20C | 0.158
G6A C58U | 0.702
G6A C58G | 0.68
G6C G73A | 0.0723
G6C G73C | 0
G6C G53A | 0.233
G6A G28U | 0.0573
G6A G28C | 0
G6A C86A | 0.536
G6A U69G | 0.689

Variant | self-cleavage
G6C A77U | 0.145
G6C C41U | 0
G6C C41G | 0
G6C C41A | 0
G6C A51U | 0.469
G6C A51G | 0.222
G6C G39U | 0.108
G6C G39A | 0.0405
G6C G39C | 0.293
G6A G74C | 0.155
G6A G74A | 0.0923
G6A G74U | 0.104
G6A U12C | 0.277
G6C G11U | 0
G6A G54C | 0.672
G6A G55C | 0.791
G6C C30U | 0.0723
G6C C30G | 0.0615
G6C C22U | 0.185
G6C G50U | 0.17
G6C G50A | 0.225
G6C C49A | 0.262
G6C C66U | 0.256
G6C C66A | 0.201

Variant | self-cleavage
G6A G29A | 0.0959
G6C G31U | 0
G6C G52A | 0.369
G6C G52U | 0.237
G6C G67C | 0.192
G6C G67A | 0.35
G6C G67U | 0.268
G6A G31A | 0.0992
G6A G31C | 0.111
G6C C21U | 0.0573
G6A C61A | 0.695
G6C A56U | 0.214
G6C A56G | 0.453
G6A U79G | 0.227
G6C C26A | 0.369
G6C C26G | 0.378
G6C C26U | 0.646
G6A G11U | 0.095
G6A G11C | 0.222
G6A G52U | 0.694
G6A U65G | 0.506
G6A U65A | 0.54
G6C C85U | 0.401
